According to the Human Domainome abundance scans (Beltran et al. 2025):
± gives the uncertainty stated by the source.

B1: Transitional endoplasmic reticulum ATPase, residues 26 to 106; numbered along this chain, P55072 (parent)
chain: LIVDEAINEDNSVVSLSQPKMDELQLFRGDTVLLKGKKRREAVCIVLSDDTCSDEKIRMNRVVRNNLRVRLGDVISIQPCP
B2: Gamma-crystallin C, residues 91 to 170; numbered along this chain, P07315 (parent)
chain: RLYEREDHKGLMMELSEDCPSIQDRFHLSEIRSLHVLEGCWVLYELPNYRGRQYLLRPQEYRRCQDWGAMDAKAGSLRRV

Variants of: B1
Experiment: abundance fitness (aPCA) (normalised: wild type 0, dead -1); higher = more abundant; growth selection in yeast, the domain comes from the species named
Conditions: Homo sapiens
V14E gave an abundance fitness of -0.945 ± 0.31.
For V14F, the abundance fitness was -1.06 ± 0.25.
V14K gave an abundance fitness of -0.856 ± 0.32.
In the case of V14P, the abundance fitness is reported as -0.977 ± 0.19.
In the case of V14H, the abundance fitness is reported as -0.956 ± 0.2.
For V14S, the abundance fitness was -0.801 ± 0.068.
With V14T the abundance fitness was -0.743 ± 0.11.
Variant V14G has an abundance fitness of -0.758 ± 0.054.
Work on V14R yielded an abundance fitness of -0.884 ± 0.083.
V14I showed an abundance fitness of 0.042 ± 0.084.
Variant V14D has an abundance fitness of -0.704 ± 0.12.
In the case of V14Q, the abundance fitness is reported as -1.02 ± 0.26.
V14W gave an abundance fitness of -0.816 ± 0.13.

Variants of: B2
Experiment: as above
Conditions: Homo sapiens
For G39V, the abundance fitness was -0.924 ± 0.16.
Work on G39A yielded an abundance fitness of -0.56 ± 0.095.
Work on G39H yielded an abundance fitness of -0.151 ± 0.14.
In the case of L37C, the abundance fitness is reported as -0.578 ± 0.34.
F26V gave an abundance fitness of -0.461 ± 0.058.
Variant F26G has an abundance fitness of -0.406 ± 0.064.
Variant F26K has an abundance fitness of -0.818 ± 0.31.
With M12K the abundance fitness was -0.464 ± 0.18.
With M12N the abundance fitness was -0.11 ± 0.15.
R63E showed an abundance fitness of -0.234 ± 0.091.
R63C showed an abundance fitness of -0.15 ± 0.14.
S16D gave an abundance fitness of -0.029 ± 0.088.
Y61L showed an abundance fitness of -0.922 ± 0.15.
D24K gave an abundance fitness of -0.256 ± 0.17.
L55T showed an abundance fitness of 0.1 ± 0.093.
Work on L55Q yielded an abundance fitness of -0.067 ± 0.089.
L11N showed an abundance fitness of 0.018 ± 0.12.
L11V showed an abundance fitness of -0.059 ± 0.055.
In the case of L77E, the abundance fitness is reported as -0.966 ± 0.49.
Y44N showed an abundance fitness of -0.325 ± 0.13.
Y44P showed an abundance fitness of -0.905 ± 0.21.
In the case of Y44H, the abundance fitness is reported as -0.306 ± 0.15.
For K9P, the abundance fitness was -0.728 ± 0.16.
With K9T the abundance fitness was -0.156 ± 0.096.
In the case of K9G, the abundance fitness is reported as -0.171 ± 0.047.
With L34A the abundance fitness was -0.064 ± 0.065.
In the case of E17C, the abundance fitness is reported as -0.168 ± 0.091.
In the case of E17K, the abundance fitness is reported as -0.416 ± 0.1.
For D7P, the abundance fitness was -0.846 ± 0.2.
In the case of Y54Q, the abundance fitness is reported as -0.783 ± 0.27.
In the case of Y54W, the abundance fitness is reported as -0.36 ± 0.1.
For Y54K, the abundance fitness was -0.76 ± 0.21.
In the case of Y54E, the abundance fitness is reported as -1.19 ± 0.48.
In the case of P47C, the abundance fitness is reported as -0.109 ± 0.25.
Variant S76H has an abundance fitness of -0.735 ± 0.36.
In the case of R52P, the abundance fitness is reported as -0.093 ± 0.16.
Work on R52I yielded an abundance fitness of -0.31 ± 0.19.
For M13F, the abundance fitness was -0.253 ± 0.15.
With G68A the abundance fitness was -0.721 ± 0.15.
Variant G68P has an abundance fitness of -0.784 ± 0.22.
Variant D71P has an abundance fitness of -0.933 ± 0.35.
P20T gave an abundance fitness of -0.43 ± 0.17.
For Y49M, the abundance fitness was -0.981 ± 0.49.
E60T gave an abundance fitness of -0.081 ± 0.07.
E60A showed an abundance fitness of 0.045 ± 0.06.
Variant E60P has an abundance fitness of -0.142 ± 0.062.
In the case of A72G, the abundance fitness is reported as -0.118 ± 0.047.
Variant E30N has an abundance fitness of -0.116 ± 0.13.
Work on L2P yielded an abundance fitness of -1.13 ± 0.48.
Work on W67E yielded an abundance fitness of -1.07 ± 0.49.
For W67H, the abundance fitness was -0.89 ± 0.42.
In the case of M70K, the abundance fitness is reported as -0.053 ± 0.15.
Work on E4C yielded an abundance fitness of -0.291 ± 0.13.
For L56M, the abundance fitness was -0.553 ± 0.23.
L56S gave an abundance fitness of -0.957 ± 0.18.
Work on I22Y yielded an abundance fitness of -0.6 ± 0.34.
For I22D, the abundance fitness was -0.89 ± 0.42.
R32H gave an abundance fitness of 0.009 ± 0.22.
R32S showed an abundance fitness of -0.466 ± 0.08.
Work on R32D yielded an abundance fitness of -0.89 ± 0.42.
Work on L15M yielded an abundance fitness of -0.431 ± 0.18.
For G10N, the abundance fitness was -0.655 ± 0.36.
Work on D66H yielded an abundance fitness of -0.548 ± 0.23.
With D66L the abundance fitness was -0.518 ± 0.054.
Variant A74L has an abundance fitness of -0.454 ± 0.086.
Variant A74Y has an abundance fitness of -0.781 ± 0.45.
Variant L46M has an abundance fitness of -0.188 ± 0.13.
Variant N48T has an abundance fitness of -0.823 ± 0.2.
With R57H the abundance fitness was -0.034 ± 0.1.
For I31W, the abundance fitness was -0.848 ± 0.16.
In the case of I31A, the abundance fitness is reported as -0.611 ± 0.074.
